Reference: patent US20140170168A1 (published 2014)

B1: Fab 2E4 (Fab, V domains shown)
VH: EVQLVESGAEVKKPGASVKVSCKASGYTFTSYYMHWVRQAPGQGLEWMGIINPSGGSTSYAQKFQGRVTMTRDTSTSTVYMELSSLRSEDTAVYYCAREGDNYYGDAFDIWGQGTMVTVSS
VL: EIVLTQSPATLSLSPGERATLSCRASQSVSSYLAWYQQKPGQAPRLLIYDASNRATGIPARFSGSGSGTDFTLTISSLEPEDFAVYYCQQRSNWPPSYTFGQGTKLEIKR
notes: also called 2E4 Fab; anti-RTL1000 TCRL Fab
B2: Fab 2C3 (Fab, V domains shown)
VH: QVQLVQSGGGVVQPGRSLRLSCAASGFTFSSYAMHWVRQAPGKGLEWVAVISYDGSNKYYADSVKGRFTISRDNSKNTLYLQMNSLRAEDTAVYYCARDRSFWSGYYIINYYYYGMDVWGQGTTVTVSS
VL: DVVMTQSPLSLPVTPGEPASISCRSSQSLLHSDGNNYLDWYLQKPGQSPQLLIYLGSNRASGVPDRFSGSGSGTDFTLKISRVEPEDVGVYYCMQALHIPLTFGQGTRLEIKR
notes: also called 2C3 Fab
B3: RTL1000 (two-domain β1α1 HLA-DR2 with covalently linked human MOG-35-55 peptide) (peptide-MHC)
chain: MEVGWYRPPFSRVVHLYRNGKGGGGSLVPRGSGGGGPRFLWQPKRECHFFNGTERVRFLDRYFYNQEESVRFDSDVGEFRAVTELGRPDAEYWNSQKDILEQARAAVDTYCRHNYGVVESFTVQRRVIKEEHDIDQDEDYDNPDQSGEFMFDFDGDEIFHVDMAKKETVWRLEEFGRFASFEAQGALANIAVDKANLEIMTKRSNYTPITNGGGGSGGGGSGGGGSGGGGSLHHILDAQKMVWNHR
notes: also called RTL1000-BirA; DR2/MOG-35-55

Experiments:
[1] = biological target: T1, RTL302 (empty two-domain HLA-DR2 RTL) (human); assay: ELISA, soluble purified Fab on immobilised biotinylated complex or peptide
T1 construct: Two-domain MHC class II without antigenic peptide; also called empty DR2; DR2 (empty)
T1 chain: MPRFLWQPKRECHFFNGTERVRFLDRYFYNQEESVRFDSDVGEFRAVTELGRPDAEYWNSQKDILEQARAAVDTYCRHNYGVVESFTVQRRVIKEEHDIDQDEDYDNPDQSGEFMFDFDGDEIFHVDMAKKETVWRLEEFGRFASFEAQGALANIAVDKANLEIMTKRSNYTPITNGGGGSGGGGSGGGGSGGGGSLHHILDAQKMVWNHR

[2] = biological target: T2, RTL2010 (two-domain β1α1 HLA-DR4 with covalently linked GAD-555-567 peptide) (human); assay: ELISA, purified Fab 1B11 on immobilised RTLs and four-domain complexes
T2 construct: also called RTL2010-BirA
T2 chain: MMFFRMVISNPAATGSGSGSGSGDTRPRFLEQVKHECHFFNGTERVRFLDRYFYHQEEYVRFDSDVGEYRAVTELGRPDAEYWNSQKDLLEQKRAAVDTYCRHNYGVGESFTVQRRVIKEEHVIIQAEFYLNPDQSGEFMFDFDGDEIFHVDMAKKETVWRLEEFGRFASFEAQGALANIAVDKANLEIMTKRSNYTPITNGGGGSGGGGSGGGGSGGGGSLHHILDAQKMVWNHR

[3] = biological target: T3, RTL600 (empty two-domain HLA-DP2 RTL) (human); assay: as above
T3 construct: also called DP2 (empty)
T3 chain: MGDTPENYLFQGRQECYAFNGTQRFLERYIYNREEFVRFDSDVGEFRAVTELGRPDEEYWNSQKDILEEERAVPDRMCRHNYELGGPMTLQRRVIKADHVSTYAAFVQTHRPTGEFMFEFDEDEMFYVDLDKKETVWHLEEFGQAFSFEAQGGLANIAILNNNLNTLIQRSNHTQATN

[4] = biological target: T4, RTL302 (empty DR2 RTL) loaded with free MOG-35-55 peptide (human); assay: sandwich ELISA: plate coated with purified Fab, loaded or empty RTL302 added, detection with mAb TU39
T4 construct: also called empty β1α1DR2-RTL loaded with MOG-35-55 peptide; MOG-35-55 loaded empty RTL302
T4 chain: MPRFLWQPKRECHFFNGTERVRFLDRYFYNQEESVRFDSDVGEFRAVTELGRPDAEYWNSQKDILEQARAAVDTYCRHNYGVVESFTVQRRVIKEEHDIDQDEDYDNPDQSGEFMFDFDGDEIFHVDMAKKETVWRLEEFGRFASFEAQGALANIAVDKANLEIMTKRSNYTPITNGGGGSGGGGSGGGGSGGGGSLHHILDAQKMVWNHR
T4 peptide: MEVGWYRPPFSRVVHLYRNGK

[5] = biological target: T5, RTL340 (two-domain β1α1 HLA-DR2 with covalently linked MBP-85-99 peptide) (human); assay: ELISA, soluble purified Fab on immobilised biotinylated complex or peptide
T5 construct: also called RTL340-BirA; DR2/MBP-85-99
T5 chain: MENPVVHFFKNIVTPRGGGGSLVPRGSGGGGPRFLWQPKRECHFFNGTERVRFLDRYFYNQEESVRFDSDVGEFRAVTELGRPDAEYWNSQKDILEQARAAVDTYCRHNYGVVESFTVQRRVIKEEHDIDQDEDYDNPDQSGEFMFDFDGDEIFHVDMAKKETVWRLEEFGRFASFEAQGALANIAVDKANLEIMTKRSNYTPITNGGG

[6] = biological target: B3; assay: SPR (ProteOn XPR36), Fab captured by immobilised anti-Fab, RTL1000 injected at 62.5-1000 nM
[7] = biological target: T6, RTL342m (two-domain β1α1 HLA-DR2 with mouse MOG-35-55 peptide) (mouse); assay: ELISA, soluble Fab on immobilised RTL (FIG. 3A)
T6 construct: Differs from RTL1000 by the Pro to Ser change at position 42 of MOG; also called DR2/mMOG-35-55; β1α1DR2/mMOG-35-55
T6 chain: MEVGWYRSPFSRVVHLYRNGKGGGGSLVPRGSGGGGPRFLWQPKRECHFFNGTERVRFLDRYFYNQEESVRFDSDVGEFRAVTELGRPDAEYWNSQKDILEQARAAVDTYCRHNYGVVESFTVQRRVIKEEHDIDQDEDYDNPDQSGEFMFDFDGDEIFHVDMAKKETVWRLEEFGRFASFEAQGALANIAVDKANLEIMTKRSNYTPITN

Fab 2E4 = biological target: B1; assay: competition ELISA: soluble competitor varied, binding of purified Fab 2E4 to immobilised RTL1000 read
Fab 2C3 = biological target: B2; assay: competition ELISA: soluble competitor varied, binding of purified Fab 2C3 to immobilised RTL1000 read
[8] = biological target: T2, RTL2010 (two-domain β1α1 HLA-DR4 with …); assay: ELISA on immobilised RTL and four-domain complex (FIG. 8C)

Row | Binder | binding result [1] | binding result [2] | binding result [3] | binding result [4] | binding result [5] | Kd [6] [nM] | fold reduction in binding to RTL342m compared to RTL1000 [7] [fold] | binding result (Fab 2E4) | binding result (Fab 2C3) | binding result [8]
1 | Fab 1B11 (Fab, V domains shown, also called 1B11 Fab) VH: EVQLVQSGAEVKKPGASVRVSCKASGYTFTSYGISWVRQAPGQGLEWMGWISAYNGNTNYAQKLQGRVTMTTDTSTSTAYMELRSLRSDDTAVYYCARDIRAYGSGSYSRYYYYGMDVWGQGTTVTVSS VL: EIVLTQSPATLSVSPGERATLSCRASQNIGSILAWYQHKPGQAPRLLIYGASTRATGIPARFSGSGSGTEFTLTISSLQSDDFAVYYCQQYLYWPFTFGGGTKVEIKR | binds | binds | no binding (tested: 5 µg/ml Fab) |  |  |  |  |  |  | 
2 | B1 | no binding (tested: 5 µg/ml Fab) |  |  | binds | no binding (tested: 5 µg/ml Fab) | 33 | 2 |  |  | 
3 | Fab 1F11 (Fab, V domains shown, also called 1F11 Fab) VH: QLQLQESGPGLVKPSETLSLTCTVSGVSISSRSGHWGWVRQPPGKGLEWIGSISYSGSTYYNPSLKSRVTISVDTSKNQLSLKLSSVTAADTAVYYCARESHPAAALVGWGQGTLVTVSS VL: ETTLTQSPGTLSLSPGERATLSCRASQSIINSHLAWYQQKPGQAPRLLIYGASSRATGIPDRFSGGGSGTDFTLTITRLETEDFALYFCQQYGTSPLTFGGGTRVETKR | no binding (tested: 5 µg/ml Fab) |  |  | binds | no binding (tested: 5 µg/ml Fab) | 60 | 5 |  |  | 
4 | Fab 3H5 (Fab, V domains shown, also called 3H5 Fab) VH: QVQLQESGPGLVKPSETLSLTCTVSGGSISGYYWSWIRQPPGKGLEWIGYIYYSGSTNYNPSLKSRVSISVDTSKNQFSLRLSSVTAADSAVYFCARDERDAYYYGMDVWGQGTTVTVSS VL: not shown | no binding (tested: 5 µg/ml Fab) |  |  | binds | no binding (tested: 5 µg/ml Fab) | 129 |  |  |  | 
5 | Fab 3A3 (Fab, V domains shown, also called 3A3 Fab) VH: QVQLQESGGGLVKPGGSLRLSCAASGFTFSSYSMNWVRQAPGKGLEWVSSISSSSSYIYYADSVKGRFTISRDNAKNSLYLQMNSLRAEDTAVYYCARVRGHRYYYDSSGYYSSDYYYYYGMDVWGQGTTVTVSS VL: DIQLTQSPSSVSASVGDRVTITCRASQVISSWLAWYQQKPGKAPKLLISTASSLQSGVPPRFSGSGSGTDFTLTITSLQPEDFATYYCQQANSFPLTFGQGTKVEIKR | no binding (tested: 5 µg/ml Fab) |  |  | binds | no binding (tested: 5 µg/ml Fab) | 58 | 5 |  |  | 
6 | B2 | no binding (tested: 5 µg/ml Fab) |  |  | binds | no binding (tested: 5 µg/ml Fab) | 153 |  |  |  | 
7 | B3 |  |  |  |  |  |  |  | binds | binds | 
8 | Fab D2 (Fab, V domains shown, the heavy chain entry holds VH, CH1, connector, His tag and Myc tag; also called D2 Fab) VH: EVQLVQSGAEVKKPGSSVKVSCKASGGTFSSYAISWVRQAPGQGLEWMGIINPSGGSTSYAQKFQGRVTITADKSTSTAYMELSSLRSEDTAVYYCARGGPTGIFDYWGQGTLVTVSS VL: EIVLTQSPATLSLSPGERATLSCRASQSVSSYLAWYQQKPGQAPRLLIYDASNRATGIPARFSGSGSGTDFTLTISSLEPEDFAVYYCQQRSNWPLTFGGGTKVEIKR |  |  |  |  |  |  |  |  |  | binds
